The source of these data is patent publication US20240376163.

For this data set, the system named is T1, biotin-p-CABIN1-L-1 (phosphorylated CABIN1-L-1).
T1 sequence: AAAMAGFPPEITVTPPTP
The experiment in a line: SPR (Biacore T200), biotin-labeled peptide captured on SA chip, His-tagged CNA at 1.25, 2.5, 5 and 10 nM, 25° C. A general note: SPR reads the build-up and loss of mass on a sensor chip optically.

Regarding “His-tagged CNA (purified; isoform not stated)”, the fold increase of binding affinity (phosphorylated vs unphosphorylated CABIN1 peptide) turned out to be 3 fold.
